Three molecules from patent publication US20240358847A1, “TROP2 BINDERS AND CONJUGATES THEREOF” (MERCK SHARP & DOHME LLC, priority 2023, published 2024) can be followed below.

Data set [1] in a line: Hydrophobic interaction chromatography (HIC). It counts as physicochemical. As to conditions: butyl HIC column, FIG. 4. On the procedure: The samples are eluted using an inverted gradient from mobile phase A to 50 mM sodium phosphate, pH 7.0/isopropanol (80:20 v/v) (mobile phase B). The elution is followed by recording the A280 nm as a function of time, the data is then exported and analyzed using the Empower software.
(§1) Developability characteristics for various mutants were performed as in Bailly Et al., Predicting Antibody Developability Profiles Through Early Stage Discovery Screening, MABS 12 (1): e1743053 (2020) (doi: 10.1080/19420862.2020.17430530), which is incorporated herein by reference in its entirety. Various methods used may be found herein under General Methods.

A short description of a further data set: UP-SEC aggregation. Format: physicochemical. The method, then: as §1
Another data set in a line: Non-reducing CE-SDS. Format: physicochemical. On the procedure: as §1
The nature of data set [2]: Drug antibody ratio (DAR) of ADC by MS / HIC. Format: physicochemical. The method, then:
A 100 mM solution of dehydroascorbic acid (8.0 equiv.) in water was added slowly and the solution was mixed at room temperature for 4-10 hours or until completion (monitored by reverse phase liquid chromatography (RP-LC) and sodium dodecyl sulfate capillary electrophoresis (CE-SDS)). A 20 mg/mL solution of linker-payload (3.0 equiv.) in DMSO was added and the conjugation was incubated at room temperature for 2 hours (monitored by Quadrupole time-of-flight (QTOF) mass spectrometry (MS)) before addition of L-cysteine (5 equiv., 50 mM in water) to quench residual linker-payload. […] The ADC was brought to the final desired concentration using Sartorius Vivacell 70 Centrifugal Concentrators and Amicon® Ultra Centrifugal Filters.
The control antibody profile is the unconjugated antibody.

Data set [3] relates to BxPC3 pancreatic cancer cells. As to the kind of experiment: In vivo anti-tumor efficacy in BxPC3 mouse model. Also noted: species or system BALB/c nude mice. To be noted: dose response, IV single dose, FIG. 14. On the procedure: Experimental protocol: 7-8 week old female BALB/c nude mice were purchased from Gempharmatech Co., Ltd. ([…]). […] Mouse body weights and tumors were measured twice weekly, and tumor volumes calculated using the formula V=0.5 [a*b2]; where a and b are the long and short diameters of the tumor, respectively. 110 mice were assigned to 11 groups of 10 mice each using a computer-generated randomization procedure to minimize tumor volume variance across groups. Treatments were started when tumors reached an average size of 200 mm^3. PBS and the MMAE conjugates were dosed intravenously (IV) at 2 mg/kg according to Table 25.
Mouse body weights and tumors were measured twice weekly, and tumor volumes calculated using the formula V=0.5 [a*b2]; where a and b are the long and short diameters of the tumor, respectively. 70 mice were assigned to 7 groups of 10 mice each using a computer-generated randomization procedure to minimize tumor volume variance across groups. Treatments were started when tumors reached an average size of 200 mm^3. PBS, a control mAb, and bioconjugate were dosed intravenously (IV) according to Table 26.

Data set [4] in a line: Rat PK of αTROP2 MMAE ADC (tAb, cAb, released MMAE). It counts as in vivo, Wistar Hannover Rats. As to conditions: 5 mg/kg IV, up to 14 days, LLOQ […].
Method: Plasma concentrations of payload conjugated anti-TROP2 antibody (cAb), total antibody (tAb), and released payload were measured up to 14 days post dose.

B1: αTROP2 (HC:BSM-YTE-S375C) (LC:BSM-Y53D): HC SEQ ID NO: 20 or 90; LC SEQ ID NO: 22 (antibody)
heavy: QVQLLQSGSELKKPGASVKVSCKASGYTFTNYGMNWVRQAPGQGLKWMGWINTYTGEPTYTDDFKGRFSFSLDTSVSQAYLQISSLKAEDTAVYYCARGGFGSSYWYFDVWGQGTLVTVSSASTKGPSVFPLAPSSKSTSGGTAALGCLVKDYFPEPVTVSWNSGALTSGVHTFPAVLQSSGLYSLSSVVTVPSSSLGTQTYICNVNHKPSNTKVDKKVEPKSCDKTHTCPPCPAPELLGGPSVFLFPPKPKDTLYITREPEVTCVVVDVSHEDPEVKFNWYVDGVEVHNAKTKPREEQYNSTYRVVSVLTVLHQDWLNGKEYKCKVSNKALPAPIEKTISKAKGQPREPQVYTLPPSRDELTKNQVSLTCLVKGFYPCDIAVEWESNGQPENNYKTTPPVLDSDGSFFLYSKLTVDKSRWQQGNVFSCSVMHEALHNHYTQKSLSLSPGK
light: DIQLTQSPSSLSASVGDRVTITCKASQDVSIAVAWYQQKPGKAPKLLIYSASDRYTGVPSRFSGSGSGTDFTLTISSLQPEDFATYYCQQHYITPLTFGPGTKVEIKRTVAAPSVFIFPPSDEQLKSGTASVVCLLNNFYPREAKVQWKVDNALQSGNSQESVTEQDSKDSTYSLSSTLTLSKADYEKHKVYACEVTHQGLSSPVTKSFNRGEC
modifications: YTE Fc mutations
In data set [1], B1 gave an HIC peak elution of 24.14 fraction.

B2: ADC 1: αTROP2 (HC:BSM-YTE-S375C) (LC:BSM-Y53D) conjugated to MP-AA-PABC-MMAE (conjugate)
heavy: B1 heavy
light: B1 light
Regarding B2, the “Purity by UP-SEC” value in the data set “UP-SEC aggregation” was found to be 96.4%. Further, in “Non-reducing CE-SDS”, the “Purity by CE-SDS NR” value is recorded as 94.7%. For the same molecule, the unconjugated antibody entry in data set [2] (by MS) is listed as “unconjugated antibody (1.2%)”. In addition, the tumor volume entry in data set [3] is recorded as “effective at reducing tumor volume”. In data set [4], the “unconjugated MMAE in the plasma” value is recorded as “no detectable”.

B3: αTROP2 (HC: BSM-YTE-S375C-MMAE)(LC: BSM-Y53D) (conjugate)
heavy: B1 heavy
light: B1 light
Consider B3, for which the “% HMW (SEC)” value in the data set “UP-SEC aggregation” (Table 22) and in the data set “UP-SEC aggregation” (Table 23) was 4.33% in each case. In addition, the DAR in data set [2] (Table 22) and in data set [2] (Table 23) was 1.7 throughout.
